Measured values: patent publication US20220406376A1 (MacroGenics, published 2022)

What was measured:
[1] = target: T1, 5T4 on the surface of target cells (JIMT-1, SKOV-3) (UniProt Q13641 32-420, limits assumed); experiment: flow cytometry on JIMT-1 (5T4 hi) cells, anti-hFc APC MFI
T1 construct: whole, on cells
T1 sequence (looked up): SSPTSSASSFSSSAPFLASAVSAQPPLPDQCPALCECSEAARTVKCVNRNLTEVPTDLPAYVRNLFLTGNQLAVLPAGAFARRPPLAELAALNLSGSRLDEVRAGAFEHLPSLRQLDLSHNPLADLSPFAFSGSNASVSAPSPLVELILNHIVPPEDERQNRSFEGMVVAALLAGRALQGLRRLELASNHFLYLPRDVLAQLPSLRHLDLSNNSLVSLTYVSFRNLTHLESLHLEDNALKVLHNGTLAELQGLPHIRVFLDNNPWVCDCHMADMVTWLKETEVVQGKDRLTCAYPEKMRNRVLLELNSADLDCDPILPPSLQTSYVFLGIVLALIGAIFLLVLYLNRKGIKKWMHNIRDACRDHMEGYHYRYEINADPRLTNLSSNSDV

[2] = target: T2, CD137 on the surface of cells (activated human T cells; engineered CHO cells) (human, UniProt Q07011 24-255); experiment: flow cytometry on activated CD8+ T cells (donor D59788, CD8 FITC), anti-hFc APC MFI
T2 construct: whole, on cells; also called human CD137; cell surface expressed CD137
T2 sequence (Q07011 24-255, change not shown): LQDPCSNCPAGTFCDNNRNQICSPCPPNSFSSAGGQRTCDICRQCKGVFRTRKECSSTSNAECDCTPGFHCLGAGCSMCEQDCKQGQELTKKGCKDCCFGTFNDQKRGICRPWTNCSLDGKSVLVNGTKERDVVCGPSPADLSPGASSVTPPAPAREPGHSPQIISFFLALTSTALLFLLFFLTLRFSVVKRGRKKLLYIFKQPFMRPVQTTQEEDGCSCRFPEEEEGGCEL

B1: TRIDENT-4 (bispecific antibody, human IgG1, kappa, L234A L235A)
chain 1: DIQMTQSPSSLSASVGDRVTITCQASQDISNYLNWYQQKPDKTVKLLIYYTGRARSGVPSRFSGSGSGTDFTFTISSLQPEDIATYFCQQGDTLPYTFGQGTKLEIKGGGSGGGGQVQLVQSGAEVKKPGASVKVSCKASGYTFTSYWINWVRQAPGQGLEWIGNIYPSDSYTNYNQKFKDKATITADKSTSTAYMELSSLRSEDTAVYYCTRDYGSAYSMSTWGQGTTVTVSSASTKGEVAACEKEVAALEKEVAALEKEVAALEKGGGDKTHTCPPCPAPEAAGGPSVFLFPPKPKDTLMISRTPEVTCVVVDVSHEDPEVKFNWYVDGVEVHNAKTKPREEQYNSTYRVVSVLTVLHQDWLNGKEYKCKVSNKALPAPIEKTISKAKGQPREPQVYTLPPSREEMTKNQVSLWCLVKGFYPSDIAVEWESNGQPENNYKTTPPVLDSDGSFFLYSKLTVDKSRWQQGNVFSCSVMHEALHNHYTQKSLSLSPGK
chain 2: DIQMTQSPSSLSASVGDRVTITCQASQDISNYLNWYQQKPDKTVKLLIYYTGRARSGVPSRFSGSGSGTDFTFTISSLQPEDIATYFCQQGDTLPYTFGQGTKLEIKGGGSGGGGQVQLVQSGAEVKKPGASVKVSCKASGYTFTSYWINWVRQAPGQGLEWIGNIYPSDSYTNYNQKFKDKATITADKSTSTAYMELSSLRSEDTAVYYCTRDYGSAYSMSTWGQGTTVTVSSASTKGKVAACKEKVAALKEKVAALKEKVAALKE
heavy: QVTLRESGPALVKPTQTLTLTCTFSGFSLSTSGMSVGWIRQPPGKALEWLADIWWDDKKDYNPSLKSRLTISKDTSKNQVVLKVTNMDPADTATYYCARSMITNWYFDVWGAGTTVTVSSASTKGPSVFPLAPSSKSTSGGTAALGCLVKDYFPEPVTVSWNSGALTSGVHTFPAVLQSSGLYSLSSVVTVPSSSLGTQTYICNVNHKPSNTKVDKRVEPKSCDKTHTCPPCPAPEAAGGPSVFLFPPKPKDTLMISRTPEVTCVVVDVSHEDPEVKFNWYVDGVEVHNAKTKPREEQYNSTYRVVSVLTVLHQDWLNGKEYKCKVSNKALPAPIEKTISKAKGQPREPQVYTLPPSREEMTKNQVSLSCAVKGFYPSDIAVEWESNGQPENNYKTTPPVLDSDGSFFLVSKLTVDKSRWQQGNVFSCSVMHEALHNRYTQKSLSLSPGK
light: DIQMTQSPSTLSASVGDRVTITCRASQSVGYMHWYQQKPGKAPKLLIYDTSKLASGVPSRFSGSGSGTEFTLTISSLQPDDFATYYCFQGSGYPFTFGGGTKLEIKRTVAAPSVFIFPPSDEQLKSGTASVVCLLNNFYPREAKVQWKVDNALQSGNSQESVTEQDSKDSTYSLSSTLTLSKADYEKHKVYACEVTHQGLSSPVTKSFNRGEC
For B1, the binding result [1] was “no binding (tested: 10 ug/mL)” and the “EC50 (read off the curve)” value [2] was about 7 ng/mL.
